Test results as given in the DeepSol protein solubility set.

Assay: soluble on expression in E. coli; label from the status in PepcDB or PDB records

Sequence	soluble on expression in E. coli
MCFWPVWNGKHCPHSTGMPATLPGHRKPTFSWPVSISVMKMPDTHTMVATVSRRILPGKPRQCFSLAVLILPLLEHGGYAITELTVTRRNTCGYSFVSGCPTVFSSRDLVGSGEEVRQARDTFLYINTDPTQGWIHYEPAAFSAGAQNKHLPMASLTGSGKHPAAARLNPVSRGPQFITVSLIIALLGTAWYGWQYYERWQTEKAAQAAVARQATEERITPPWPGLPETDAFIRGCADIWTSLPLSAAGWRYSLAECSTDGGSGNLRASYTNTAGATVTDFIRRISDMTDSRPFIVMPEGKTGGIGLPVTFRLSENAVTVDALPETAVLQERLTSLAQSMQLKLDWQEVNNSVTDENGQIIQPPWKEYDLQIQTTLPAHHLAERLKEPSVRFISVTRQLENGRFHYQFTGKYYARLEHHHHHH	not soluble
MGSDKIHHHHHHMAKTIRDESTASAYWAAVNTFCALKDVHVIADAPVGCYNLAGVAVMDYTDAIPYLENLTPTSLTEREISSSGSSQIVQETIEKLMGSGKQLILVSSAESEMIGSDHQHMLAMKYPSVRFFASDSLGENEWQGRDRALAWLFDQFDDGQPSQIEPGTVSIIGPTYGCFNSPADLAEVKRLVTGAGGRVAHVYPFESKAAEITKLKNSAAIVVMYREFGAALAEKLGRPVLYAPFGIEETDRFIGKIGRLCGTPEQATRFIAEEKRTTLSPVWDLWRGPQSEWFPTIRFGVVASKSYADGIKHVLGDELGMQCLFSLDSAEVDNNAVRKEIVQKQPQFLYGRMPDKIYLAEADAKSRFIPAGFPGPIVRRALGTPFMGHSGVVWLVQEIVNALYDTLFNFLPITRRQQAAAPTKPLKWTPEANAILDGIVRKAPFISQISFGRELKRKAENLAASRGADTVTPDILQQLG	not soluble
AHHHHHHGSRMRQEERKFVELVERIMERWGYDRTGGKIYGILLLSNKPLTISELSKITGLSRSSVSVALSKLTREYLVTYTKEKKTKYFYAVPAFLEKFLKQPKEILEREIKPLKEIVVKLAEKSNEEEKARFEAILSDLLTLECVLKKIIELEEKESECLKK	not soluble
MGSDKIHHHHHHMSMNISGLGNAYSGVNTNSKQYKALKEKGWLEGVIQNEAMMSPEGKMIYEIFGGRDTIVNNLMKQFDSDGDLLNANGVAGMDVTGKGTSWQKLTNVSEEYRQKMFDNVKKEFIQENGVSNGDTTKRSDIFKDYQLSVNKDKRLSGTWTLEQYEGQYRSAMYAAVKAANPNWKPGQKFDTSILDNVTRESAEATLVKNGNRLVRNSIDVSV	not soluble
MKSLETMARYKKELTECARNLKLPFLAEHLDEILHEAQEKQQTYSEFLSTCLMRELRDKERRSYLTRLKFAGLPARYDLDLYDFSRTEGIDQRQMRELRELVWIRRTYNLLLVGDSGTGKTFIASGLIHEAVKAGYKAYLLTLEELFVCLKTKEISRPAMKTYKRIMKAQLLAIDDVTLFPLKGEDVLLLFKLVNCVQGKTSLIITASRDLTGWLEMAGDEVCAAALLDRLLYCCEIIRLSGKSYRMENRKTIFSNQQIGTASLEHHHHHH	not soluble
MRPSGRMENKKQSKGASRGSRRRSINTSNSNTSARHAFSPCSYSSSGTEIRKVAISVSSNSTTELPCAQSPNVGSRTSDSHQLTLGSDLRSEPNNLNIAATLAEPNIAEHFKGVLTKKEAANLTRRDDFTMYYRVVKDQAKVELETTIPLFICYRNSENKVFSFRVEQVLTENNSMWWTVMINKQHTQMFRRLLDLVRCYHSYRFINPETRSQEMFPIWKYTNQASMNP	not soluble
MGSDKIHHHHHHMNSKNPRTTIPAPLQSILSAIPLFAPLPPDDINTLSKLIEIQVFPKNRTILHEADTANYMYLVLAGKVRVVQHSNDGTEQVLAIHRKGAFFGEMALLDGRTSPATLIAHEDATVGLIARTAFENQILTNDRMLRQIISVLCSRLRESWFLMKLSRFSSAEQKVRGVLKYLGTQYGVDDSRGKILSIKLTHRTVAGYASVSRETASRILGRFSRAGEIELLASRRMLLKPTLFLNPPFL	not soluble
MLVLYRASIRFKLRKNKNSFDSSNYFYGGNNICIINTKWGKHSGIGGYAEIIDTLVGNFTNISSWAKIGIRDHIHTNFLICDFVYKDNDHIMPPGISSFEDYWVKIGNDVWVGTNVTILRGVEVGDGAVIAAGSVVTKSIPPYAIVGGNPAKFIKWRFPFEVREKLLEIKWWDWDDDLIKEKKDYLQNLVGFDMDKYKIEYRKRKEDLFYLEHHHHHH	soluble
MTINFRRNALQLSVAALFSSAFMANAADVPQVKVTVTDKQCEPMTITVNAGKTQFIIQNHSQKALEWEILKGVMVVEERENIAPGFSQKMTANLQPGEYDMTCGLLTNPKGKLIVKGEATADAAQSDALLSLGGAITAYKAYVMAETTQLVTDTKAFTDAIKAGDIEKAKALYAPTRQHYERIEPIAELFSDLDGSIDAREDDYEQKAADPKFTGFHRLEKALFGDNTTKGMDQYAEQLYTDVVDLQKRISELAFPPSKVVGGAAGLIEEVAASKISGEEDRYSHTDLWDFQANVEGSQKIVDLLRPQLQKANPELLAKVDANFKKVDTILAKYRTKDGFETYDKLTDADRNALKGPITALAEDLAQLRGVLGLD	soluble
MKSLESMEQFQQLKNEENVVFMFSAEWCPDCRFVDPFMPEVEEKYSDFSFYYVDRDEFIDLCVKLDVFGIPSFVAYNKGEETGRYVNKDRKTQEQIEEFIEGLK	not soluble
MRIKLIIVEGKTDESFFKVLLEKLYGFREAKKLTPEFPIGKWGFRIGEHPLVLEKDNIALVIIHAEGKQRIPKVLKSVLDSVKLGLLNVEEVYVVRDVDEGNDVFEWVLSFLREREVRVDNGAIVTEGVKIYPYGMGNLTLNEPFVKEKKELELSLAYLAKLDGILEKYRGSMRALSQDKGDKLTPKDVMHILSIANDYTGDCLSGLYEKYIGIMIHRNRELLIRFLSEVNLLPLLERMVG	soluble
MGSDKIHHHHHHMMKIYKKNIDHYIMLSFEINEMNIPFTGQIVVKEDDEVTREVILGRAKKIHEWLVLVDHIFSPFRTNSELTLYNHRKIEMTGTNLLFQEVFALSIWAKEMTQGLFSANFVGKYNPTGAVKGWAIEKAERIQLEPLLSDPNFVAVNLNGGGDMQFSSSDKHNWQWEIGIVNPFDNKKVISCFRMKNGAIATSGTSQRGEHLFNSSTGRAIPEKNFNVISSSVIGSELTYSDIWATAIATTTINDHSWLKRLSGSGLRISYNKKSERWLNHEIIDQKELIYA	not soluble
GHHHHHHHHHHSSGHIEGRHMPAAPSPAPAGAVAGGPAAGVPAAASGAAEAAMPLPAALPGALAGSHAPRLPLAAGGRLARTRAVREFFDYCLTAQGELTPAALDALVRREIAAQLDGSPAQAEALGVWRRYRAYFDALAQLPGDGAVLGDKLDPAAMQLALDQRAALADRTLGEWAEPFFGDEQRRQRHDLERIRIANDTTLSPEQKAARLAALDAQLTPDERAQQAALHAQQDAVTKIADLQKAGATPDQMRAQIAQTLGPEAAARAAQMQQDDEAWQTRYQAYAAERDRIAAQGLAPQDRDARIAQLRQQTFTAPGEAIRAASLDRGAG	soluble
MKKRAACLCFRSEREDEVLLVSSSRYPDRWIVPGGGMEPEEEPGGAAVREVYEEAGVKGKLGRLLGVFEQNQDPEHRTYVYVLTVTELLEDWEDSVSIGRKREWFKVEDAIKVLQCHKPVHAEYLEKLKAHHHHHH	soluble
AVNEENIMIPKGVEVYEITGPYFFGIATKFEETMAQLGDRPNVRIIRMRKVPFIDSTGIHNLTTLCEMSQKEKITVILSGVNEKVYKVLEKSGFYELLGKENICPNFKIALDRAEEV	not soluble
MGSDKIHHHHHHMLSRTADHLYWMARYIERAENMARVLDVTYNMSLVPNASQSETTLWEPALQIAGGVDSYRQEYGEVTAGGVVRFLAMDTKNPSSIYSTLRSARENARSVRVTLSAETWENINALWLEFSQFVGMDLMQKGLGEFCDWVKSRSHLFRGVSFGTMLRDDAFRFLRLGTFIERADNTARLLDVKYHLLLPSGEEVGGAVDYYEWSAILRAVSAFHAYQKVFNDAIEPWKVAELLVLREDMPRSLHACFSEITPILDQLNGRHSSECRRLAGELHARLRYGRMTDIFQGGLHEFLTDFITSNNNLGAEIQRTFLNAPINGLAAETE	not soluble
